Assays:
c-Src SH2 = assay: SH2 binding enrichment of the phosphorylated peptide, bacterial display (enrichment ratio); higher = better substrate or ligand; peptides without Tyr show the background
Grb2 SH2 = Grb2 SH2 (UniProt P62993); assay: as above
SHP2-C SH2 = assay: as above
FGFR1 = FGFR1 (UniProt P11362); assay: phosphorylation enrichment, bacterial display (enrichment ratio); higher = better substrate or ligand; peptides without Tyr show the background
EPHB2 = EPHB2 (UniProt P29323); assay: as above
c-Abl (mouse) = assay: as above
MERTK = MERTK (UniProt Q12866); assay: as above
FGFR3 = FGFR3 (UniProt P22607); assay: as above
EPHB1 = EPHB1 (UniProt P54762); assay: as above
Fer (mouse) = assay: as above
Jak2 = Jak2 (UniProt O60674); assay: as above
Hck = Hck (UniProt P08631); assay: as above
c-Src = assay: as above
Fes = Fes (UniProt P07332); assay: as above
AncSZ = assay: as above
Fyn = Fyn (UniProt P06241); assay: as above
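For SH2 binding enrichment of the phosphorylated peptide, bacterial display in this document: peptide library displayed on the E. coli surface as eCPX fusions, selected cells deep-sequenced, score is each peptide's frequency after selection divided by its frequency in the input.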
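For phosphorylation enrichment, bacterial display in this document: 11-residue human phosphosite peptides and single-mutation variants displayed on the E. coli surface, counted by deep sequencing, each peptide's frequency after selection divided by its frequency in the unselected input library; frequency after pTyr selection over input frequency; kinase dosed for 20-30% of maximal phosphorylation in three min.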

Sequence of EPHB1 (P54762 whole entry, looked up): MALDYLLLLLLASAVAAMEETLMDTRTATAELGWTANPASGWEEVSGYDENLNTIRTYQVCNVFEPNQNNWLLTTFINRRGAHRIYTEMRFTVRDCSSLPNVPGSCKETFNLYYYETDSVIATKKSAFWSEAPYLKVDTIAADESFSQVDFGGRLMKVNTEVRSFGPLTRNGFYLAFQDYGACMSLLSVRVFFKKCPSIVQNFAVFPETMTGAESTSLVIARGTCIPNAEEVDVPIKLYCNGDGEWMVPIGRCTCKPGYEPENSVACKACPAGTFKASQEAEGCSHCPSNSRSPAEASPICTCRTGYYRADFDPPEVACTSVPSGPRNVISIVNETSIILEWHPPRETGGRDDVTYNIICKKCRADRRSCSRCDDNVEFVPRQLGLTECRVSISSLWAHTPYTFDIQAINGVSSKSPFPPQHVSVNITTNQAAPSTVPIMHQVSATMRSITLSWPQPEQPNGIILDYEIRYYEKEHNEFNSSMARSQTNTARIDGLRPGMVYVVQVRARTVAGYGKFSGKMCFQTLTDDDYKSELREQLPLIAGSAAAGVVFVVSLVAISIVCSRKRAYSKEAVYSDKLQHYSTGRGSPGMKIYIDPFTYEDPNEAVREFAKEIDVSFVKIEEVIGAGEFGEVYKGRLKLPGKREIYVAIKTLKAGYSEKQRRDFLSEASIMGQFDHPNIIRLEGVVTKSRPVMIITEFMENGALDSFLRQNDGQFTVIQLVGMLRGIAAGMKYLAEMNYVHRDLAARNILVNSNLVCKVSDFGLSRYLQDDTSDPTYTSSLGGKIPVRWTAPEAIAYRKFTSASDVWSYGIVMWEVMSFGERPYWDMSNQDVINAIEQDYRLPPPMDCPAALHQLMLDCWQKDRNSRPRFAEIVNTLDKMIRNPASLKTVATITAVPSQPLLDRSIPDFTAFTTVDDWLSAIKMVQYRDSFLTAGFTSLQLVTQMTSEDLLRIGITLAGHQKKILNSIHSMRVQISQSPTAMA
Sequence of FGFR3 (P22607 whole entry, looked up): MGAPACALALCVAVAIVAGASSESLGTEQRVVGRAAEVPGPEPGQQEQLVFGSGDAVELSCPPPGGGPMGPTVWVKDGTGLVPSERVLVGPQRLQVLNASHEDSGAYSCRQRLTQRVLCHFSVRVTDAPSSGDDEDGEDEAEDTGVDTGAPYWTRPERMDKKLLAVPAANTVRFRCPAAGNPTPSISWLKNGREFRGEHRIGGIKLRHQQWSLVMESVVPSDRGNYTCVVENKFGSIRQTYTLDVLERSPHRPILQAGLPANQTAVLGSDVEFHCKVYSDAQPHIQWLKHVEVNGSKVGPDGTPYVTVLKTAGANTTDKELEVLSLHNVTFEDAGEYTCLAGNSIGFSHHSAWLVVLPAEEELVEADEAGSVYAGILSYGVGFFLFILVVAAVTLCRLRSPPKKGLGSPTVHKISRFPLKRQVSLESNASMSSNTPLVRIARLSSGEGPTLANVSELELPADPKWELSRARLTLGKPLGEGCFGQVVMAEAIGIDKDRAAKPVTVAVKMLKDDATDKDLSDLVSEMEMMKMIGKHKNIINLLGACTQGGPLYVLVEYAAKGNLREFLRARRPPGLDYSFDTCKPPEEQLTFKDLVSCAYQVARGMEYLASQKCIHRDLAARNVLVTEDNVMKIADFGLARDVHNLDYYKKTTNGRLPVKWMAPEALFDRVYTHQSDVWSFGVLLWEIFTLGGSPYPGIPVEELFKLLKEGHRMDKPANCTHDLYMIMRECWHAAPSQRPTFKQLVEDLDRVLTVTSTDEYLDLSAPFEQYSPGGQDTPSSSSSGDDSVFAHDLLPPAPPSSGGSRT
Sequence of Jak2 (O60674 whole entry, looked up): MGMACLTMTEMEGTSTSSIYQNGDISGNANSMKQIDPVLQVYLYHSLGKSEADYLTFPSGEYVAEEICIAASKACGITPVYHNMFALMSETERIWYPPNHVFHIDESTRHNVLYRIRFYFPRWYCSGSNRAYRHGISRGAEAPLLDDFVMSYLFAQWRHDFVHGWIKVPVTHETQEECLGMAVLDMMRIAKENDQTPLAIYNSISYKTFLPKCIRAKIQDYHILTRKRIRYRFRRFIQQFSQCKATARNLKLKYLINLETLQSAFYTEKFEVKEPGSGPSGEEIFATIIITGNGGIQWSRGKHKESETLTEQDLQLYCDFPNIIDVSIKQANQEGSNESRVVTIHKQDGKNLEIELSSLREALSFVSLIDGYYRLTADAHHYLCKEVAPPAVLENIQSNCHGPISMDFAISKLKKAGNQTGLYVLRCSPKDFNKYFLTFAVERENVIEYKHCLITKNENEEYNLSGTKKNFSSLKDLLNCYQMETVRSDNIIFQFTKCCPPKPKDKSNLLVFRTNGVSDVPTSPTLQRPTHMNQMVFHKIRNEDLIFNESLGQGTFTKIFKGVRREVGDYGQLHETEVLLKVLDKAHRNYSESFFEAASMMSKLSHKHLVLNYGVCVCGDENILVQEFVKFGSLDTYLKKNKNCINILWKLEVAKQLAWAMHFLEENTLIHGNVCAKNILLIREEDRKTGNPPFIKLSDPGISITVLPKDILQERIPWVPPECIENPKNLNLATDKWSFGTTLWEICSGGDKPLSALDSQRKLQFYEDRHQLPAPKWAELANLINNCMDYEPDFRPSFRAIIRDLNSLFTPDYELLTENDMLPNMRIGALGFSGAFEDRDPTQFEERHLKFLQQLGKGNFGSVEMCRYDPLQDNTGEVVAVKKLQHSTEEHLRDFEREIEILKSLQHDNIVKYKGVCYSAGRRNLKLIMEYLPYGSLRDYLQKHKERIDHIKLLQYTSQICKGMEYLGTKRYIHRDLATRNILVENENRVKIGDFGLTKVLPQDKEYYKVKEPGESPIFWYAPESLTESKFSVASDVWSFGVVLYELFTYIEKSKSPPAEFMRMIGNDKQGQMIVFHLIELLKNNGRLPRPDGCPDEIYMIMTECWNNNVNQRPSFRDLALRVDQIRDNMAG
Sequence of Fes (P07332 whole entry, looked up): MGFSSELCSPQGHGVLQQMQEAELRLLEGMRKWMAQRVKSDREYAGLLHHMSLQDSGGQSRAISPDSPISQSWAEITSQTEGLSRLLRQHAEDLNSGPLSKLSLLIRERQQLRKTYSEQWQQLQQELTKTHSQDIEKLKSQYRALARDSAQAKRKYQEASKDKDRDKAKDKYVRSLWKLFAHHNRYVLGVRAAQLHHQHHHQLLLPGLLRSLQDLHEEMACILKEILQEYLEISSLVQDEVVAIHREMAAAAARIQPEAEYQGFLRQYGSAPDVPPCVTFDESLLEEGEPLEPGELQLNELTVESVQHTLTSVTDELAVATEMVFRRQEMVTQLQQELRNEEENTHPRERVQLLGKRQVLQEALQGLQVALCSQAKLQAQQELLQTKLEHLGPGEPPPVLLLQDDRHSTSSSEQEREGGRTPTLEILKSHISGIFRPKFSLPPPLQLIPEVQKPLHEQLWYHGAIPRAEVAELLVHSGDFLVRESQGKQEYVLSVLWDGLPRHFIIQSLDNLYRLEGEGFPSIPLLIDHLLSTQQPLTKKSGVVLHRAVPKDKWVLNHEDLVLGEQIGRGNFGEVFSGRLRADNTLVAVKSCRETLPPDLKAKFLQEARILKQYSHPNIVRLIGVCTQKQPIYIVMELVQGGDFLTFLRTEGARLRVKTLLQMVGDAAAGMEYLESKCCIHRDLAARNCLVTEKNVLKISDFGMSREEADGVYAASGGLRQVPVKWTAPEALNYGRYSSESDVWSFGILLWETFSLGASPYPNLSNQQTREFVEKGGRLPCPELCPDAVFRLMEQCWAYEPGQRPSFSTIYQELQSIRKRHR
Sequence of MERTK (Q12866 whole entry, looked up): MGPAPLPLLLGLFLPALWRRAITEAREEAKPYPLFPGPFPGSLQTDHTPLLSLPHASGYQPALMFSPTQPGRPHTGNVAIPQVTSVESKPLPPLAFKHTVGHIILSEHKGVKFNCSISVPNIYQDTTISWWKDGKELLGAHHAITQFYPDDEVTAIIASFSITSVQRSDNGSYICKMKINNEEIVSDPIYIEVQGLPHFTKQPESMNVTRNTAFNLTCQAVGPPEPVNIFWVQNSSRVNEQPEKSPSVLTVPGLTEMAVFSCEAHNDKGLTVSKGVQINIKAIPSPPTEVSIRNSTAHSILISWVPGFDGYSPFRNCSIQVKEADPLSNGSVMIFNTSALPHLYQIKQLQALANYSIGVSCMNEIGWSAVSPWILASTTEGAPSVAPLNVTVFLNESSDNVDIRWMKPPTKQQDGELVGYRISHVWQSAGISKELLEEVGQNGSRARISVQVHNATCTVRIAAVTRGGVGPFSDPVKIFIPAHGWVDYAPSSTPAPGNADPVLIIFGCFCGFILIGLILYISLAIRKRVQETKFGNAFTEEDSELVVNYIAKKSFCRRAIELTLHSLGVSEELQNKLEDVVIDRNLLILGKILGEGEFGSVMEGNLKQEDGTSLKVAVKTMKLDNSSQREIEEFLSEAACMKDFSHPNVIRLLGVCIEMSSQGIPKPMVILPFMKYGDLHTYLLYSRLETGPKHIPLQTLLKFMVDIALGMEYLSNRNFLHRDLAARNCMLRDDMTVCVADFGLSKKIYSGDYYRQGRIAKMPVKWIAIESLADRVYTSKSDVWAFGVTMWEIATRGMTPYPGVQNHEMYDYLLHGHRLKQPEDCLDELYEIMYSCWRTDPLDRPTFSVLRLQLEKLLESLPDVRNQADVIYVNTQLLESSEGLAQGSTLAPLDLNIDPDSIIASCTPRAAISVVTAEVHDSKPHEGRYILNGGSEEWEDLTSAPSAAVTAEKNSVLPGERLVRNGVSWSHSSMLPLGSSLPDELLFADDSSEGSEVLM
Sequence of Grb2 SH2 (P62993 whole entry, looked up): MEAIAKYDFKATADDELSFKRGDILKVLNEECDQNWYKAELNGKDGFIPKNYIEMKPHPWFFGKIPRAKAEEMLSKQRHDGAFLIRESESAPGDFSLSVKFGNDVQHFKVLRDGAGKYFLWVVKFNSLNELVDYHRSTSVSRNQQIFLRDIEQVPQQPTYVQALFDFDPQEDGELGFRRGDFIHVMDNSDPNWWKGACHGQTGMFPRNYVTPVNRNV

Row | Sequence | SH2 binding enrichment (c-Src SH2) | SH2 binding enrichment (Grb2 SH2) | SH2 binding enrichment (SHP2-C SH2) | phosphorylation enrichment (FGFR1) | phosphorylation enrichment (EPHB2) | phosphorylation enrichment (c-Abl (mouse)) | phosphorylation enrichment (MERTK) | phosphorylation enrichment (FGFR3) | phosphorylation enrichment (EPHB1) | phosphorylation enrichment (Fer (mouse)) | phosphorylation enrichment (Jak2) | phosphorylation enrichment (Hck) | phosphorylation enrichment (c-Src) | phosphorylation enrichment (Fes) | phosphorylation enrichment (AncSZ) | phosphorylation enrichment (Fyn)
1 | YGSGNYNDFGN [HNRNPA2B1_Y300] | 0.68 | 0.94 | 0.629 | 0.719 | 1.01 | 0.923 | 0.501 | 0.654 | 3 | 0.424 | 0.966 | 0.632 | 0.643 | 1.08 | 1.03 | 0.668
2 | YHIDHYLGKEM [G6PD_Y202_R198H] | 0.573 | 1.09 | 0.664 | 0.673 | 0.505 | 0.58 | 0.438 | 0.667 | 0.437 | 0.478 | 0.476 | 0.474 | 0.546 | 0.674 | 0.599 | 0.482
3 | YIATQYSLRPR [LBR_Y166] | 0.392 | 0.762 | 0.685 | 0.551 | 0.493 | 0.72 | 0.731 | 0.527 | 0.511 | 0.439 | 0.779 | 0.568 | 0.659 | 0.773 | 0.932 | 0.558
4 | YISLIYTNYEV [GSTP1_Y109_A114V] | 1.16 | 1.18 | 1.5 | 4.89 | 1.83 | 2.16 | 3.93 | 4.26 | 2 | 5.32 | 1.54 | 2.59 | 4.53 | 1.55 | 1.82 | 4.07
5 | YKRAVYCIIGR [NUP93_Y391] | 0.937 | 0.906 | 0.792 | 0.429 | 0.464 | 0.563 | 0.849 | 0.563 | 0.506 | 0.505 | 0.599 | 0.755 | 0.626 | 0.785 | 0.746 | 0.59
6 | YLAAIYPTVGQ [NF1_Y2508_T2507I] | 1.39 | 0.747 | 0.986 | 1.16 | 0.514 | 0.597 | 1.37 | 0.88 | 0.511 | 0.58 | 0.671 | 0.57 | 0.528 | 0.89 | 0.94 | 0.513
7 | YLEKYYKFGSR [NNMT_Y25] | 0.523 | 0.9 | 0.604 | 0.524 | 0.48 | 0.59 | 0.407 | 0.553 | 0.453 | 0.508 | 0.604 | 0.473 | 0.654 | 0.779 | 0.69 | 0.501
8 | YLENYYDLKKD [MMP3_Y42] | 0.908 | 0.904 | 0.821 | 9.43 | 3.03 | 0.957 | 1.81 | 7.09 | 6.01 | 0.759 | 1.61 | 3.17 | 2.31 | 1.27 | 1.83 | 3.76
9 | YLGRDYLETLM [DUS3L_Y610] | 0.563 | 0.748 | 0.803 | 2.74 | 0.544 | 0.898 | 0.524 | 2.29 | 0.617 | 0.637 | 1.06 | 0.829 | 0.538 | 1.03 | 0.937 | 0.514
10 | YMLYQYLKQIE [RPAP3_Y569_D564Y] | 1.44 | 1.94 | 2.83 | 6.02 | 10.5 | 1.6 | 8.62 | 4.47 | 13.3 | 6.78 | 1.85 | 5.99 | 2.25 | 1.11 | 1.53 | 1.56
11 | YNNYGYGSDGF [HNRNPH3_Y161_N163S] | 0.969 | 1.49 | 0.658 | 0.673 | 5.3 | 0.55 | 0.652 | 0.683 | 2.96 | 0.458 | 0.631 | 0.521 | 0.505 | 0.784 | 0.735 | 0.507
12 | YQASYYRRGDR [LTK_Y677_R673Q] | 0.418 | 0.684 | 0.442 | 0.411 | 0.399 | 0.641 | 0.523 | 0.526 | 0.453 | 0.403 | 0.635 | 0.57 | 0.527 | 0.713 | 0.685 | 0.492
13 | YQKDVYNIPPS [NEDD9_Y177_D178N] | 0.495 | 0.808 | 0.6 | 0.623 | 0.532 | 0.584 | 1.64 | 0.529 | 0.456 | 0.472 | 0.805 | 2.34 | 3.29 | 0.702 | 0.81 | 4.4
14 | YSKDNYKRVTG [PANK2_Y405] | 0.374 | 0.793 | 0.597 | 0.456 | 0.44 | 0.52 | 0.488 | 0.4 | 0.362 | 0.494 | 0.6 | 0.344 | 0.44 | 0.611 | 0.675 | 0.387
15 | YSKTQYNQVPS [CXADR_Y318] | 0.767 | 0.748 | 0.714 | 0.393 | 0.318 | 0.729 | 0.467 | 0.429 | 0.351 | 0.386 | 0.502 | 0.343 | 0.387 | 0.522 | 0.473 | 0.461
16 | YSQNICIQNRN [PKP2_Y631_Y631C] | 0.56 | 0.7 | 0.619 | 0.524 | 0.503 | 0.663 | 0.49 | 0.641 | 0.529 | 0.498 | 0.777 | 0.501 | 0.432 | 1.01 | 0.874 | 0.415
17 | YSTSPYLLEAA [BRIP1_Y921] | 0.629 | 0.657 | 1.15 | 0.551 | 0.518 | 0.959 | 1.38 | 0.604 | 0.544 | 0.53 | 0.694 | 1.08 | 2.21 | 0.931 | 0.887 | 4.67
